Laboratory results: patent publication US20160200831A1 (Sanofi, published 2016)
Where two headings read alike, the source gives them in different places.

B1: A44-hv9 (antibody, V domains shown)
VH: QMQLQESGPGLVKPSETLSLTCTVSGDSMTNGYWNWIRQPPGKGLEYMGYITYSGSTYYNPSLKSRITISRDTSKNQYSLKLSSVTAADTAVYYCARWHYGSPYYFDYWGQGTLVTVSS
VL: DIQMTQSPSSLSASVGDRVTITCKASQDINSYLSWLQQKPGKAPKTLIYRANRSVDGVPSRFSGSGSGQDYTFTISSLQPEDIATYYCLQYDEFPPTFGGGTKVEIK
notes: humanized A44, HEK293; constant regions as for A44-hv1; also called LC5b x HC5b; variant 9
B2: A44-hv14 (antibody, V domains shown)
VH: QMQLQESGPGLVKPSETLSLTCTVSGDSMTNGYWNWIRQPPGKGLEYMGYITYSGSTYYNPSLKSRITISRDTSKNQYSLKLSSVTAADTAVYYCARWHYGSPYYFDYWGQGTLVTVSS
VL: DIKMTQSPSSLSASVGDRVTITCKASQDINSYLSWLQQKPGKSPKTLIYRAQRSVEGVPSRFSGSGSGQDYSLTISSLQPEDLATYYCLQYDEFPPTFGGGTKLEIK
notes: humanized A44, HEK293; constant regions as for A44-hv1; also called LC4 x HC5b; variant 14
B3: A44-hv8 (antibody, V domains shown)
VH: QVQLQESGPGLVKPSETLSLTCTVSGDSMTNGYWNWIRQPPGKGLEYMGYITYSGSTYYNPSLKSRITISRNTSKNQYSLKLSSVTAADTAVYYCARWHYGSPYYFDYWGQGTLVTVSS
VL: DIQMTQSPSSLSASVGDRVTITCKASQDINSYLSWLQQKPGKAPKLLIYRANRSVDGVPSRFSGSGSGTDYTFTISSLQPEDIATYYCLQYDEFPPTFGGGTKVEIK
B4: C45 (antibody, mouse IgG2b, V domains shown)
VH: QVQLQQSGVELVRPGTSVKVSCKASGYAFTNYLIEWIKQRPGQGLEWIGVIHPGSGVTNYNEKFKGKAILTADKSSSTAYMQLSSLTSDDSAVYFCARDYYGSSHGLMDYWGQGTSVTVSS
VL: DIKMTQSPSSMYASLGERVTITCKASQDINSYLSWFQQKPGKSPKTLIYRANRLVDGVPSRFSGSGSGQDYSLTISSLEYEDMGIYYCLQYDEFPRTFGGGTKLEIK
notes: mouse IgG2b; also called mC45; C45 (IgG2b)
B5: A44-hv6 (antibody, V domains shown)
VH: QMTLKESGPTLVKPTQTLSLTCSVSGDSMTNGYWNWIRQFPGKALEYMGYITYSGSTYYNPSLKGRITITRDTSKNQYYLTLSSVTTVDTATYYCARWHYGSPYYFDYWGQGTTLTVSS
VL: DIKMTQSPSSLSASVGDRVTITCKASQDINSYLSWLQQKPGKSPKTLIYRANRSVDGVPSRFSGSGSGQDYSLTISSLQPEDLATYYCLQYDEFPPTFGGGTKLEIK
notes: humanized A44, HEK293; constant regions as for A44-hv1; also called LC3 x HC3; variant 6
B6: A44-hv1 (antibody, V domains shown)
VH: EMTLKESGPTLVKPTQTLSLTCSVTGDSMTNGYWNWIRKFPGKALEYMGYITYSGSTYYNPSLKGRISITRNTSKNQYYLTLSSVTTVDTATYYCARWHYGSPYYFDYWGQGTTLTVSS
VL: DIKMTQSPSSLSASVGDRVTITCKASQDINSYLSWLQQKPGKSPKTLIYRANRSVDGVPSRFSGSGSGQDYSLTISSLQPEDLGIYYCLQYDEFPPTFGGGTKLEIK
notes: humanized A44, HEK293; also called LC1a x HC1a; variant 1
B7: A44-hv5 (antibody, V domains shown)
VH: EMTLKESGPTLVKPTQTLSLTCSVTGDSMTQGYWNWIRKFPGKALEYMGYITYSGSTYYNPSLKGRISITRNTSKNQYYLTLSSVTTVDTATYYCARWHYGSPYYFDYWGQGTTLTVSS
VL: DIKMTQSPSSLSASVGDRVTITCKASQDINSYLSWLQQKPGKSPKTLIYRAQRSVEGVPSRFSGSGSGQDYSLTISSLQPEDLGIYYCLQYDEFPPTFGGGTKLEIK
notes: humanized A44, HEK293; constant regions as for A44-hv1; also called LC2 x HC2b; variant 5
B8: A44-hv12 (antibody, V domains shown)
VH: QMTLKESGPTLVKPTQTLSLTCSVSGDSMTNGYWNWIRQFPGKALEYMGYITYSGSTYYNPSLKGRITITRDTSKNQYYLTLSSVTTVDTATYYCARWHYGSPYYFDYWGQGTTLTVSS
VL: DIKMTQSPSSLSASVGDRVTITCKASQDINSYLSWLQQKPGKSPKTLIYRAQRSVEGVPSRFSGSGSGQDYSLTISSLQPEDLATYYCLQYDEFPPTFGGGTKLEIK
notes: humanized A44, HEK293; constant regions as for A44-hv1; also called LC4 x HC3; variant 12
B9: A44-hv4 (antibody, V domains shown)
VH: EMTLKESGPTLVKPTQTLSLTCSVTGDSMTQGYWNWIRKFPGKALEYMGYITYSGSTYYNPSLKGRISITRNTSKNQYYLTLSSVTTVDTATYYCARWHYGSPYYFDYWGQGTTLTVSS
VL: DIKMTQSPSSLSASVGDRVTITCKASQDINSYLSWLQQKPGKSPKTLIYRANRSVDGVPSRFSGSGSGQDYSLTISSLQPEDLGIYYCLQYDEFPPTFGGGTKLEIK
notes: humanized A44, HEK293; constant regions as for A44-hv1; also called LC1a x HC2b; variant 4

Assays:
human PAI-1 [1] = target: T1, human PAI-1 (human, UniProt P05121 24-402); experiment: cell-based or functional assay
T1 sequence (P05121 24-402 limits assumed): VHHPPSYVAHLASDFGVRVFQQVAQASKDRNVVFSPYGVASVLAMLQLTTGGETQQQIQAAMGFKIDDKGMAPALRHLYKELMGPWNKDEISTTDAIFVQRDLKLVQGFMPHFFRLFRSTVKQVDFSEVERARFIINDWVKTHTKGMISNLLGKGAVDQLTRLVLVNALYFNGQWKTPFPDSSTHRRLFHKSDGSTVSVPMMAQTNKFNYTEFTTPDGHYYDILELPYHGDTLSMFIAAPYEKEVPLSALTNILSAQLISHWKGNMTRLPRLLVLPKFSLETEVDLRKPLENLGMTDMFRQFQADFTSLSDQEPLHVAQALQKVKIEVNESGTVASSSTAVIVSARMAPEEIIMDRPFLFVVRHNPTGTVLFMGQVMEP

[2] = target: T2, glycosylated human PAI-1 (active form) (human, UniProt P05121 24-402, glycosylated); experiment: cell-based or functional assay
T2 sequence (P05121 24-402 limits assumed): as above

[3] = target: T2, glycosylated human PAI-1 (active form); experiment: cell-based or functional assay; remark: listed apart in the source
[4] = target: T3, cyno PAI-1 captured on immobilized human vitronectin (cynomolgus monkey; human, UniProt P04004 20-478, limits assumed); experiment: Biacore, cPAI-1 on vitronectin chip, 1:1 model
T3 construct: non-covalent complex formed on the chip; also called cPAI-1/Vn
T3 sequence (chain, as listed by the source limits assumed, chain 1 of 2): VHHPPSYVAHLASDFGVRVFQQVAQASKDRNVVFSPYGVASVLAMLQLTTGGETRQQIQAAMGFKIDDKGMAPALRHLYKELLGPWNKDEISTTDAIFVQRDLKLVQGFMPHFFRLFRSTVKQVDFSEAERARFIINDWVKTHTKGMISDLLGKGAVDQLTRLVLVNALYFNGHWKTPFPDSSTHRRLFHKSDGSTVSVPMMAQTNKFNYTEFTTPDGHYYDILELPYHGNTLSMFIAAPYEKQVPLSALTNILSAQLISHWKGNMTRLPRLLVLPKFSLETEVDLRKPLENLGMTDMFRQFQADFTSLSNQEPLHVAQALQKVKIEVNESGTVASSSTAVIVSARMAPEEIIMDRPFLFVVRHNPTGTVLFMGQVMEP
T3 sequence (P04004 20-478 limits assumed, chain 2 of 2): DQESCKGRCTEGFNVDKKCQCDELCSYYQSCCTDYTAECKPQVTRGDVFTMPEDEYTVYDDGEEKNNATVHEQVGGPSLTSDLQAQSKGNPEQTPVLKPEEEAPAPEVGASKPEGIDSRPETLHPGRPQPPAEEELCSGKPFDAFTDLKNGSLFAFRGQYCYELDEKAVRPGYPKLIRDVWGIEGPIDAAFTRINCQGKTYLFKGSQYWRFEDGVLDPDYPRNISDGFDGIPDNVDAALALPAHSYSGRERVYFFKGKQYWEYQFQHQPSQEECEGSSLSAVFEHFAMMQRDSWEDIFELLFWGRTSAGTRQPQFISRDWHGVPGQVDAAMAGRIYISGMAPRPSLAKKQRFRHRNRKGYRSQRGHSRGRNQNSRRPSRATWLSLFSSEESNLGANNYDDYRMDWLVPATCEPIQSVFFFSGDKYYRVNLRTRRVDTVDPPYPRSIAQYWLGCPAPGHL

[5] = target: T4, human PAI-1 captured on immobilized human vitronectin (human, UniProt P04004 20-478); experiment: Biacore, hPAI-1 on vitronectin chip, 1:1 model
T4 construct: non-covalent complex formed on the chip or plate; also called PAI-1/Vn complex; Vn captured hPAI-1
T4 sequence (chain, as listed by the source limits assumed, chain 1 of 2): as the sequence (P05121 24-402 limits assumed) above
T4 sequence (P04004 20-478 limits assumed, chain 2 of 2): as the sequence (P04004 20-478 limits assumed, chain 2 of 2) above

human PAI-1 [6] = target: T1, human PAI-1; experiment: cell-based or functional assay; remark: listed apart in the source
cynomolgus PAI-1 [7] = target: T5, cynomolgus PAI-1 (cynomolgus monkey (Macaca fascicularis), UniProt P05121 24-402 (human entry)); experiment: cell-based or functional assay
human PAI-1 [8] = target: T1, human PAI-1; experiment: Biacore, mAb on anti-human IgG Fc chip, 1:1 model
cynomolgus PAI-1 [9] = target: T5, cynomolgus PAI-1; experiment: Biacore, mAb on anti-human IgG Fc chip / cyno PAI-1, 1:1 model
[10] = target: T2, glycosylated human PAI-1 (active form); experiment: cell-based or functional assay; remark: listed apart in the source
[11] = target: T2, glycosylated human PAI-1 (active form); experiment: cell-based or functional assay; remark: listed apart in the source
human PAI-1 [12] = target: T1, human PAI-1; experiment: Biacore, hybridoma supernatant
[13] = target: T3, cyno PAI-1 captured on immobilized …; experiment: Biacore, cPAI-1 on vitronectin chip, two state reaction model
[14] = target: T3, cyno PAI-1 captured on immobilized …; experiment: Biacore, cPAI-1 on vitronectin chip, two state reaction model (ka1)
[15] = target: T3, cyno PAI-1 captured on immobilized …; experiment: Biacore, cPAI-1 on vitronectin chip, two state reaction model (kd1)

Binder | Chromogenic Assay IC50 (human PAI-1 [1]) | Plasminogen Activation IC50 [2] | Plasminogen Activation Y50% [2] | Plasminogen Activation IC50 [3] | Plasminogen Activation Y50% [3] | Kd [4] | koff [4] | kon [4] | Kd [5] | koff [5] | kon [5] | other results
B1 | 0.86 nM | 1.9 nM | 46.5% | 1.51 nM | 50.9% | 0.0215 nM | 0.000134 s⁻¹ | 6.51e+06 M⁻¹ s⁻¹ | 0.017 nM | 0.000103 s⁻¹ | 6.36e+06 M⁻¹ s⁻¹ | 
B2 |  |  |  | 1.82 nM | 61.2% | 0.0386 nM | 0.000213 s⁻¹ | 5.86e+06 M⁻¹ s⁻¹ | 0.00957 nM | 3.95e-05 s⁻¹ | 4.06e+06 M⁻¹ s⁻¹ | active PAI-1 by uPA-PAI-1 complex ELISA, hPAI-1 Standard, IC50 (human PAI-1 [6]): 0.0563 nM; active PAI-1 by uPA-PAI-1 complex ELISA, hPAI-1 Standard, Y50% (human PAI-1 [6]): 52.5%; active PAI-1 by uPA-PAI-1 complex ELISA, hPlasma TH1782, IC50 (human PAI-1 [6]): 0.0586 nM; active PAI-1 by uPA-PAI-1 complex ELISA, hPlasma TH1782, Y50% (human PAI-1 [6]): 73.9%; active PAI-1 by uPA-PAI-1 complex ELISA, Cyno PAI-1, IC50 (cynomolgus PAI-1 [7]): 0.0287 nM; active PAI-1 by uPA-PAI-1 complex ELISA, Cyno PAI-1, Y50% (cynomolgus PAI-1 [7]): 52.5%; Kd (human PAI-1 [8]): 0.027 nM; koff (human PAI-1 [8]): 3.42e-05 s⁻¹; kon (human PAI-1 [8]): 1.25e+06 M⁻¹ s⁻¹; Kd (cynomolgus PAI-1 [9]): 0.0115 nM; koff (cynomolgus PAI-1 [9]): 2.69e-05 s⁻¹; kon (cynomolgus PAI-1 [9]): 2.32e+06 M⁻¹ s⁻¹
B3 | 0.76 nM |  | 11% |  |  |  |  |  |  |  |  | 
B4 |  |  |  |  |  |  |  |  |  |  |  | plasmin generation, hepatic stellate cells, IC50abs [10]: 6.5 nM; plasmin generation, hepatic stellate cells, Imax [10]: 97%; Chromogenic Assays [11]: 0.5 nM; Plasmin Generation [11]: 10.6 nM; koff (human PAI-1 [12]): ≤ 0.0001 s⁻¹
B5 | 0.82 nM | 1.78 nM | 56.9% |  |  | 0.00501 nM | 2.51e-05 s⁻¹ | 5.26e+06 M⁻¹ s⁻¹ | 0.0133 nM | 5.68e-05 s⁻¹ | 4.38e+06 M⁻¹ s⁻¹ | 
B6 | 0.49 nM | 3.12 nM | 45% | 2.08 nM | 58.5% |  |  |  | 0.0526 nM | 0.000555 s⁻¹ | 1.1e+07 M⁻¹ s⁻¹ | Kd [13]: 2.45 nM; kon [14]: 3.37e+06 M⁻¹ s⁻¹; koff [15]: 0.00827 s⁻¹
B7 | 1.11 nM |  |  |  |  | 0.0326 nM | 0.000111 s⁻¹ | 3.4e+06 M⁻¹ s⁻¹ | 0.0102 nM | 2.76e-05 s⁻¹ | 2.72e+06 M⁻¹ s⁻¹ | 
B8 |  |  |  | 1.99 nM | 76.7% | 0.0569 nM | 0.000235 s⁻¹ | 4.26e+06 M⁻¹ s⁻¹ | 0.0161 nM | 8.14e-05 s⁻¹ | 5.15e+06 M⁻¹ s⁻¹ | active PAI-1 by uPA-PAI-1 complex ELISA, hPAI-1 Standard, IC50 (human PAI-1 [6]): 0.114 nM; active PAI-1 by uPA-PAI-1 complex ELISA, hPAI-1 Standard, Y50% (human PAI-1 [6]): 53.5%; active PAI-1 by uPA-PAI-1 complex ELISA, hPlasma TH1782, IC50 (human PAI-1 [6]): 0.00335 nM; active PAI-1 by uPA-PAI-1 complex ELISA, hPlasma TH1782, Y50% (human PAI-1 [6]): 37.7%; active PAI-1 by uPA-PAI-1 complex ELISA, Cyno PAI-1, IC50 (cynomolgus PAI-1 [7]): 0.0266 nM; active PAI-1 by uPA-PAI-1 complex ELISA, Cyno PAI-1, Y50% (cynomolgus PAI-1 [7]): 53.5%; Kd (human PAI-1 [8]): 0.0414 nM; koff (human PAI-1 [8]): 6.7e-05 s⁻¹; kon (human PAI-1 [8]): 1.62e+06 M⁻¹ s⁻¹; Kd (cynomolgus PAI-1 [9]): 0.0244 nM; koff (cynomolgus PAI-1 [9]): 5.45e-05 s⁻¹; kon (cynomolgus PAI-1 [9]): 2.24e+06 M⁻¹ s⁻¹
B9 | 0.52 nM |  | 26% |  |  |  |  |  | 0.0192 nM | 8.8e-05 s⁻¹ | 4.59e+06 M⁻¹ s⁻¹ | Kd [13]: 0.752 nM; kon [14]: 226000 M⁻¹ s⁻¹; koff [15]: 0.00017 s⁻¹
